Results from PMC4976285.

Target: HLA-A*0201 molecules on the surface of T2 cells (human (endogenous in T2) | human)
Assay: flow cytometry on cells

## HTNV nucleoprotein peptide FA9 (aa129–aa137, …)
  fluorescent index (FI): 2.77
